# Test results as given in patent US20230137562A1, “TAU AGGREGATION INHIBITORS” (priority 2017, published 2023).
# Values joined by “and” are separate entries in the source; they are usually repeats but may differ in a detail not shown here. Identical values can stand only once. Square brackets hold non-standard residues; d marks the D form. Ends that are not written are not given here. NMeR = CN[C@@H](CCCNC(=N)N)C(=O)O; hArg = N=C(N)NCCCC[C@H](N)C(=O)O; Orn = NCCC[C@H](N)C(=O)O
# T1: Ac-VQIINK-NH2
# T1 peptide: Ac-VQIINK-NH2
# What was measured:
# His-Tau40P301L Tau = His-Tau40P301L Tau (UniProt P10636-8 1-441); assay: cell-based or functional assay
# Sequence of His-Tau40P301L Tau (P10636 other isoform, or with tags, fused parts or gaps limits assumed): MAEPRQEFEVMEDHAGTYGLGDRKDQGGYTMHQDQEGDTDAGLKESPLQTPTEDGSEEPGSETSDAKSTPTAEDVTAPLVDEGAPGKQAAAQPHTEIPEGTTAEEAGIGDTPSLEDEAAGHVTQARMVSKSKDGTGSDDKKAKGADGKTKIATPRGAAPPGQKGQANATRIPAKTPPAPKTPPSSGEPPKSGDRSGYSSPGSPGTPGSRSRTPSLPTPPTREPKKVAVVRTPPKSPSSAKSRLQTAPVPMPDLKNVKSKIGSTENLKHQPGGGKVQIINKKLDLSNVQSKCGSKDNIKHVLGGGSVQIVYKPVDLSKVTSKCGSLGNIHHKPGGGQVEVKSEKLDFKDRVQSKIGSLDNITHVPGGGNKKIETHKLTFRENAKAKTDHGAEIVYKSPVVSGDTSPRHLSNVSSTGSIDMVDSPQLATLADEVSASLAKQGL
# Ac-VQIINK-NH2 = target: T1, Ac-VQIINK-NH2; assay: cell-based or functional assay
Binder,"IC50 (µM), Tau40 assay (ThT) (His-Tau40P301L Tau)","IC50 (µM), VQIINK Inhibition (ThT) (Ac-VQIINK-NH2)"
RIWLRLW,2.14 µM,2.01 µM
WRFRLYLR,47 µM,2.81 µM
WRIQIRW,1.7 µM and 2.34 µM,2.17 µM
IWLRLW,9.93 µM,2.29 µM
WRLRIHW,1.82 µM,3.2 µM
WYRIRLRYW,1.13 µM and 1.21 µM,2.98 µM
WYRIWVRYW,1.86 µM and 2.08 µM,2.22 µM
HRIWIRYW,1.87 µM,4.3 µM
LRIRIRL,1.82 µM,17.8 µM
WRITIRW,1.99 µM,2.64 µM
RRIWIRYW,1.96 µM,5.61 µM
IWIRLW,11.4 µM,2.12 µM
WRIWLRYW,2.05 µM,2.32 µM
WWIRIRYW,1.1 µM and 1.38 µM,1.92 µM
WY[Orn]IWI[Orn]W [WYOIWIOW],1.92 µM,2.45 µM
WRARARW,12 µM,29.1 µM
WRIRIRL,1.52 µM,7.38 µM
RWRIWIW,0.76 µM,3.44 µM
WRIRIRYW,1.22 µM and 1.33 µM and 1.37 µM,2.44 µM and 3.77 µM
WLKVQVRLW,1.86 µM,1.71 µM
ERIRIRW,12.2 µM,5.98 µM
WRIRLRYW,1.02 µM and 1.32 µM,4.13 µM
LRIRIRW,2.07 µM,4.31 µM
WY[hArg]L[hArg]I[hArg]W [WY(hR)L(hR)I(hR)W],1.74 µM,2.95 µM
WRLWFWWR,1.82 µM,1.19 µM

Binder,"IC50 (µM), Tau40 assay (ThT) (His-Tau40P301L Tau)","IC50 (µM), VQIINK Inhibition (ThT) (Ac-VQIINK-NH2)"
WIRIRIW,2.03 µM and 2.04 µM,0.81 µM and 1.72 µM
RIWIRLW,2.06 µM,2.31 µM
WRLKVRWW,1.24 µM,3.34 µM
WRI[NMeR]IRW [WRI(NMe)RIRW],0.57 µM,3.84 µM
WKLKLRWW,2.06 µM,0.82 µM
WAIRIRW,1.72 µM,1.94 µM
WKIKLKYW,1.3 µM and 1.32 µM,2.82 µM
WRIRWRYW,0.42 µM and 0.41 µM,3.46 µM
RYRIWIW,1.61 µM,5.74 µM
WRIFIRW,2.01 µM,9.13 µM
WRIRLWYW,0.68 µM,1.98 µM
WRIRIRF,10.8 µM,42.8 µM
WRIWIRRW,1.68 µM,3.85 µM
WWIRIRYWR,1.48 µM and 1.58 µM,1.79 µM
RIRILIL,2.15 µM,1.64 µM
FRIRIRW,1.47 µM,4.04 µM
WWIRIRYWK,1.02 µM and 1.12 µM,1.89 µM
WKVWVRYW,2.09 µM,4.93 µM
RIRIFIF,1.96 µM,2.87 µM
WWIRLRYW,1.32 µM and 1.53 µM,3.24 µM
RLRIWIW,1.21 µM,2.04 µM
WRIRLYWW,1.15 µM,2.35 µM
WWIRIRYWL,1.2 µM and 1.31 µM,4.88 µM
RIRIRW,10.9 µM,10.8 µM
WRIRLWYR,1.31 µM,1.7 µM
